The source of these data is the supplement of paper PMC9170038.

The test system of this data set is MS2 coat protein. Put plainly: apparent KD of MS2 coat protein; designed switch direction (-1 OFF switch, 1 ON switch): -1; higher = weaker reporter binding. The gist of the method: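 On Illumina chips, designed RNA switches with common flanks were made by stalled E. coli RNA polymerase. Titrations with SNAP-549-labelled MS2 coat protein, doubling from 0.7 or 1.5 nM to 3 µM, were done with no input, with 200 uM small-molecule ligand, or with an oligonucleotide input. Apparent KD is the median per design over clusters, from curve fits of normalised cluster fluorescence.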

Where [1] appears, read: Eterna round: R95, input ligand: FMN 200 uM.
[2] abbreviates: Eterna round: R95, input ligand: microRNA oligo, concentration not stated.
Where [3] appears, read: Eterna round: R95, input ligand: none.
The mark [4] stands for this setting: input ligand: microRNA oligo, concentration not stated.

“AGCGGAGAUGUCAGGAUAUCUCGCUCGGUGGGUUGAGAGAAGGGACAUGAGGAUCACCCAUGUCUGCAAUUGUC [Eternabot (Original) Solution 46] (Eterna round: R97, puzzle: Brourd's mod of Exclusion 4)”: the “apparent KD of MS2 coat protein” value stood at 19.9 nM (input ligand: FMN 200 uM) and 17.9 nM (input ligand: none).
Take “AGAGGACAUGAGGAUCACCCAUGUAAGGAUAUGCGGAGAGUUUGGAGAGGUCGGGUAGGCAGAAGGUACAGGAG [JR_Exclu1_Sub050] (puzzle: Exclusion 1)”: the “apparent KD of MS2 coat protein” value under setting [1] amounted to 82.2 nM, the “apparent KD of MS2 coat protein” value under setting [2] came to 92.5 nM and the “apparent KD of MS2 coat protein” value under setting [3] is 89.4 nM.
On to “UUCAUGUAAGGAUAUCGUGCAAGUUUCAAAAGAGGCUUGUGCGAGAAGGUACAUGAGGAUCACCCAUGUAGGUU [Omei Ex4 B9] (Eterna round: R97, puzzle: Exclusion 4)”, for which the “apparent KD of MS2 coat protein” value (input ligand: FMN 200 uM) stood at 86.9 nM and the “apparent KD of MS2 coat protein” value (input ligand: none) came out at 754 nM.
For “CCGAAAUCCUAGGAUAUGCUAGACGAAAGUCUAGCAGAAGGAGGAACAUGAGGAUCACCCAUGUGUCCUAUCGG [Mat - Exclusion 6 - Eli Mod - D30] (Eterna round: R97, puzzle: Exclusion 6)” the same measures were 23.1 nM and 15.8 nM.
For “GUACAACAUGAGGAUCACCCAUGUGAGGAUAUGCGAAUUUCAUCAAAAGAUGAAAUUUGCAGAAGGCACUGUAC [Omei Ex1 A10] (Eterna round: R97, puzzle: Exclusion 1)”, the “apparent KD of MS2 coat protein” value reads like this: (input ligand: FMN 200 uM) 19.2 nM; (input ligand: none) 20.8 nM.
For “UUUUAGGCAGGAUAUACAUGAGGAUCACCCAUGUAAAUUUUUCGUUUAACUUGAAUGUGUAGAAGGGCCAUUUU [Ex3 #59] (Eterna round: R97, puzzle: Exclusion 3)” the same measures were 20.7 nM and 20.2 nM.
On the same counts, the results for “GCUAGGAGUGUGAGGAUAUGCUGUUCCUUGGAACAGCAGAAGGCACAUGAGGAUCACCCAUGUGAAGACCUAGC [Mat - Exclusion 4 - JL Mod - D3] (Eterna round: R97, puzzle: Brourd's mod of Exclusion 4)” are 149 nM and 24.5 nM.
Consider “UUGUUAUGUGUAGGAUAUGCAUAUUAUUAUUAUGCAGAAGGACAUGAGGAUCACCCAUGUGUAUUGUUAUUAUAUAUUAUAUAU [Title] (Eterna round: R96, puzzle: Exclusion NG 1)”, for which the “apparent KD of MS2 coat protein” value under setting [4] was found to be 17.1 nM.
For the sequence “AAGAAACAUGAGGAUCACCCAUGUGAGGAUAUGAAAAAUAAAAUAAAAUAAAUAAUAAUCAGAAGGCACAAAGG [Mat - Mod of Hog D7] (puzzle: Exclusion 1)”, the “apparent KD of MS2 coat protein” value under setting [1] was 37.3 nM, the “apparent KD of MS2 coat protein” value under setting [2] amounted to 34.1 nM and the “apparent KD of MS2 coat protein” value under setting [3] turned out to be 42 nM.
On to “ACAUGAGGAUCACCCAUGUUUUUCGGGUACUCUUUUUACAGCAAGGAUAUGCAUGUUUUUUUUACGCAGAAGGUGCUUUACGUC [JR_ExcNG3_Sub067] (Eterna round: R96, puzzle: Exclusion NG 3)”, for which the “apparent KD of MS2 coat protein” value under setting [4] came to 77.7 nM.
Same read-out and setting: then “AUUAUAUAGUAAGGAUAUAGAUUAUUAUUUUAACAUGAGGAUCACCCAUGUAGCCUUAUGUAUAACUAGAAGGUACAUUUAUUA [Title] (Eterna round: R96, puzzle: Exclusion NG 2)”, with 35.7 nM.
As to “GUACUGACAGGAUAUACAUGAGGAUCACCCAUGUGCCUUAGCGCUACAAAAGUAGCGUGUAGAAGGGUCUGUAC [Omei Ex3 Model Bachelor's Dilema v15] (Eterna round: R97, puzzle: Exclusion 3)”, the “apparent KD of MS2 coat protein” value is, setting by setting: (input ligand: FMN 200 uM) 36.8 nM; (input ligand: none) 15.4 nM.
As for “ACAUGUUGUGCAGGAUAUGGGACACAUGAGGAUCACCCAUGUGGCUACAUGUCAUACCAAGCGUCUCAGAAGGGUAUUAACAUG [Ex NG2 #37] (Eterna round: R96, puzzle: Exclusion NG 2)”, the “apparent KD of MS2 coat protein” value runs as follows: (input ligand: FMN 200 uM) 31.9 nM; under setting [4], 24.8 nM; (input ligand: none) 23.2 nM.
Take “AUAAGCUUUUAUAUCCUUAACAUGAGGAUCACCCAUGUUCGUCUUAUGAUGGUCUGAUCCCUGAGGAUCGGACCGUU [JL-sv1-2.04 Brourd Mod] (puzzle: Sensor v3, turn-off variant 1)”: the “apparent KD of MS2 coat protein” value runs as follows: under setting [1], 31 nM; under setting [2], 76.5 nM; under setting [3], 29.9 nM.
In the case of “AAAUCGGCAGGAUAUACAUGAGGAUCACCCAUGUAAAUUUUUCGUUUAACUUGAAUGUGUAGAAGGGCCAUUAA [Ex3 #64] (Eterna round: R97, puzzle: Exclusion 3)”, the “apparent KD of MS2 coat protein” value worked out at 24.8 nM (input ligand: FMN 200 uM) and 24.6 nM (input ligand: none).
As to “GAUUGACAUGAGGAUCACCCAUGUGAGGAUAUCGGCCGGACCUUGUUAGCUUCCAGCGCGAGAAGGCGCAUAGG [Exclusion 1 V36] (puzzle: Exclusion 1)”, the “apparent KD of MS2 coat protein” value came to 58.9 nM under setting [1], 28.6 nM under setting [2] and 43.4 nM under setting [3].
Consider “GUCAGCUCGUGAGGAUAUGAACAUGAGGAUCACCCAUGUAAGAUCAAGCUGCUUCGGCAGCAAGUUCAGAAGGCACGAGCUGAU [ENG2/10-A2] (Eterna round: R96, puzzle: Exclusion NG 2)”, for which the “apparent KD of MS2 coat protein” value turned out to be 251 nM (input ligand: FMN 200 uM), 134 nM under setting [4] and 172 nM (input ligand: none).
“AUAAGGUCAGGAUAUGCUUGGCGGAUUCUGGUGUCCAAAUGACAUGAGGAUCACCCAUGUAGAAGGGACAUCAG [Leonlexe] (Eterna round: R97, puzzle: Exclusion 2)”: the “apparent KD of MS2 coat protein” value (input ligand: FMN 200 uM) was determined as 12.4 nM and the “apparent KD of MS2 coat protein” value (input ligand: none) stood at 14.1 nM.
With “UUUCAACAUGAGGAUCACCCAUGUGAGGAUAUGAUGCAGCAGUGGUCUACGCUGUGCAUCAGAAGGCACAUGUG (puzzle: Exclusion 1)”, the “apparent KD of MS2 coat protein” value under setting [2] turned out to be 130 nM.
With “AGCUAGUCAGGAUAUACGCAAACGAACGAAGCAGUGAAGGGACAUGAGGAUCACCCAUGUAGAAGGGACUAGCA [Diamond 30] (Eterna round: R96, puzzle: Exclusion 2)”, the “apparent KD of MS2 coat protein” value by setting is: (input ligand: FMN 200 uM) 121 nM; under setting [4], 17.4 nM; (input ligand: none) 24.9 nM.
As for “GAUCGACAUGAGGAUCACCCAUGUCAGGAUAUGCAACGGACAAAACGAUACGUCAUAGGUAGAAGGGACUGUCU [Eternabot (Original) Solution 2] (Eterna round: R97, puzzle: Exclusion 1)”, the “apparent KD of MS2 coat protein” value worked out at 18.4 nM (input ligand: FMN 200 uM) and 17.7 nM (input ligand: none).
For “UACCUGAGGCAAAGCUUUAGGCUUACAUGAGGAUCACCCAUGUAGGAUAUGGUAGGCAAAGCUUACCAGAAGGACAUGGAAAUU [Mat - Exclusion NG 3 - Mod of JL - D23] (Eterna round: R96, puzzle: Exclusion NG 3)”, the “apparent KD of MS2 coat protein” value by setting is: (input ligand: FMN 200 uM) 398 nM; under setting [4], 68.1 nM; (input ligand: none) 86.8 nM.
“CGAUGUGGAGUGAGGAUAUCGUGUUCGAAAGAACGUGAGAAGGCACAUGAGGAUCACCCAUGUGAUUCACGUCG [Omei Ex4B A6] (Eterna round: R97, puzzle: Brourd's mod of Exclusion 4)”: the “apparent KD of MS2 coat protein” value is, setting by setting: (input ligand: FMN 200 uM) 28 nM; (input ligand: none) 15.6 nM.
As to “UUGAGUCGGAAGGAUAUGCGAGCCGCCGGGUCAGCAGAAGGUCCGACAUGAGGAUCACCCAUGUUGGGCGAGGA [EX6 B.10] (Eterna round: R97, puzzle: Exclusion 6)”, the “apparent KD of MS2 coat protein” value was 351 nM (input ligand: FMN 200 uM) and 25.2 nM (input ligand: none).
Turning to “GUCGUGCGGCUUUGCUGUGCGGGUGCAUGAGGAUCACCCAUGUAGGAUAUGGUACGCUUUGCGUGCCAGAAGGGCGUGCGUUGG [salish99_ExNG3_r04_009] (Eterna round: R96, puzzle: Exclusion NG 3)”, the “apparent KD of MS2 coat protein” value worked out at 154 nM (input ligand: FMN 200 uM), 114 nM under setting [4] and 110 nM (input ligand: none).
Consider “GAAAAGCUAGGAUAUACGAAAAAAAAGGGUAGAAAAAAAACACAUGAGGAUCACCCAUGUAGAAGGAGCAAAAG [salish99_ex2_r3_093] (puzzle: Exclusion 2)”, for which the “apparent KD of MS2 coat protein” value by setting is: under setting [1], 102 nM; under setting [2], 51 nM; under setting [3], 48.2 nM.
With “GCGUUCUGAGGAUAUACAUGAGGAUCACCCAUGUUGAGAAUUAGGUAUAAGGGAUUUUGUAGAAGGCAGAGUGC [JR_Ex3_Sub072] (Eterna round: R97, puzzle: Exclusion 3)”, the “apparent KD of MS2 coat protein” value was 228 nM (input ligand: FMN 200 uM) and 59.9 nM (input ligand: none).
For “UAAGGACAUGAGGAUCACCCAUGUUAGGAUAUGCCGAGGGAGACCCGUGUUGACACUUGCAGAAGGAGUAUGGG [Eternabot (L1) Solution 25] (Eterna round: R97, puzzle: Exclusion 1)” the same measures were 70.4 nM and 86.2 nM.
Regarding “UCCAGUGAAGGAUAUGCACCAGGCAAUUGUAGGGUACUCAUACAUGAGGAUCACCCAUGUAGAAGGUCGCAGGC [Eternabot (L2) Solution 78] (Eterna round: R97, puzzle: Exclusion 2)”, the “apparent KD of MS2 coat protein” value (input ligand: FMN 200 uM) was found to be 32.4 nM.
As for “ACUCACGCAGGAUAUACAUGAGGAUCACCCAUGUUCGAAGGGCGUGGGCACAAAGUCUGUAGAAGGGCGAAAAU [Zave] (Eterna round: R97, puzzle: Exclusion 3)”, the “apparent KD of MS2 coat protein” value by setting is: (input ligand: FMN 200 uM) 19.2 nM; (input ligand: none) 16.3 nM.
Consider “CUGUGCACGCUGCGGUCCUACAUGAGGAUCACCCAUGUGGUCUGGUGGCGUGGGUCACCGGACUUGGCUCGUCUUGA [salish99_S_TOV1_R5_065] (Eterna round: R97, puzzle: Sensor, turn-off variant 1)”, for which the “apparent KD of MS2 coat protein” value turned out to be 44.8 nM (input ligand: FMN 200 uM) and 49.3 nM (input ligand: none).
